In patent publication US20150266957A1 (Regeneron, published 2015):

Experiments:
human PROKR1 = human PROKR1 (human, UniProt Q8TCW9 1-393); test: cell-based or functional assay
human PROKR2(1-53)-hFc [1] = molecular target: T1, human PROKR2(1-53)-hFc (human); test: SPR (Biacore 4000), 25 C, antibody captured
T1 construct: also called soluble human PROKR2 (N-terminal portion)
Experimental: (§1) Kinetic experiments were carried out using HBS-EP (10 mM HEPES, 150 mM NaCl, 3 mM EDTA, 0.05% Surfactant P20, pH 7.4) as both the running buffer and the sample buffer. Antigen-antibody association rates were measured by injecting 2 concentrations (25 and 100 nM) of both human PROKR1 (1-62)-hFc (SEQ ID NO:179) and human PROKR2(1-53)-hFc (SEQ ID NO:180) over the captured antibody surface. Antibody-antigen association was monitored for 90 seconds while dissociation was monitored for 360 seconds. Kinetic on-rate (kₐ) and off-rate (kd) constants were determined from the data using Scrubber software version 2.0 c. Binding dissociation equilibrium constants (KD) and dissociative half-lives (t 1/2) were calculated from the kinetic rate constants as: KD=kd/kₐ and t 1/2=ln(2)/kd.

human PROKR2 = molecular target: T2, human PROKR2 (human, UniProt Q8NFJ6 1-384); test: flow cytometry, HEK293 cells expressing the target
T2 construct: Expressed on engineered HEK293 or CHO cells; also called hPROKR2; prokineticin receptor 2
T2 sequence (Q8NFJ6 whole entry): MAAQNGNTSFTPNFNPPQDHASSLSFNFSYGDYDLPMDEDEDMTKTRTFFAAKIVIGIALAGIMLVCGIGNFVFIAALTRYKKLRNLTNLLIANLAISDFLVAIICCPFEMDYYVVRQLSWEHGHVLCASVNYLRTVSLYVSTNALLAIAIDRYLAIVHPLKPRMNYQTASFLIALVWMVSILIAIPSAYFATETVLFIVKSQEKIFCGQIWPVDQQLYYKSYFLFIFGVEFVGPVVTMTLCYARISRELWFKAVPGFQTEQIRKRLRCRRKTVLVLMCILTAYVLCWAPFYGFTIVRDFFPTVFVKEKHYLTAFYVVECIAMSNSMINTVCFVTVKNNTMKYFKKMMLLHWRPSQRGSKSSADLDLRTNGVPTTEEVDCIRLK
Experimental: Anti-PROKR antibodies generated in accordance with Example 1 were tested for the ability to bind to human, mouse, and monkey PROKR1 and PROKR2. For these experiments, HEK293 cells were engineered to express: human PROKR1; human PROKR2; mouse PROKR1; mouse PROKR2; cynomolgus monkey PROKR1; or cynomolgus monkey PROKR2. Binding of anti-human PROKR antibodies to the PROKR-expressing cell lines was measured by flow cytometry.
Adherent cells were collected using 1 mM EDTA in PBS, then washed, and re-suspended in cold PBS containing 5% FBS. For the binding experiments, each anti-PROKR antibody was added to 250,000 cells in 500 μl of PBS with 5% FBS (final antibody concentration of 13 nM). After incubation for 20 minutes at room temperature, the cells were washed with PBS containing 5% FBS. A secondary antibody, recognizing either human (Jackson Immuno Research, #115-135-205) or mouse Fc (BD Pharmigen, #550826) and conjugated to allophycyanin, was then added to the cell mixture at a final concentration of 13.3 nM. After incubating for 20 minutes on ice, the cells were washed and resuspended in PBS containing 5% FBS and then sorted and analyzed on a FACSCalibur (BD Biosciences) flow cytometer to determine relative binding by the candidate antibodies. The cell samples containing secondary antibody alone were used as negative control for FACS gating. Histograms of cells stained with anti-human PROKR antibodies were compared with cells stained with secondary alone. […] ND=not determined.

human PROKR1 (1-62)-hFc = molecular target: T3, human PROKR1 (1-62)-hFc (human); test: SPR (Biacore 4000), 25 C, antibody captured, antigen injected at 25 and 100 nM
T3 construct: also called soluble human PROKR1 (N-terminal portion)
T3 sequence (chain, as listed by the source limits assumed): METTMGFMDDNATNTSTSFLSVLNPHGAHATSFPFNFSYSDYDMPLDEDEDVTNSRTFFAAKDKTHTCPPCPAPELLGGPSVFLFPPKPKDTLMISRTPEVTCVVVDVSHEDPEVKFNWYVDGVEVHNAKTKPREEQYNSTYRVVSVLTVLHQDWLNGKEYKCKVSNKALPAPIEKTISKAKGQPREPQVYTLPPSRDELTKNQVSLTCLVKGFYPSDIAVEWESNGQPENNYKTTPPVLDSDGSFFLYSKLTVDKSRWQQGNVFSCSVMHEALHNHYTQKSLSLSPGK
Experimental: as §1

mouse PROKR1 = mouse PROKR1 (mouse (Mus musculus), UniProt Q9JKL1 1-393); test: cell-based or functional assay
Chain of mouse PROKR1 (Q9JKL1 whole entry): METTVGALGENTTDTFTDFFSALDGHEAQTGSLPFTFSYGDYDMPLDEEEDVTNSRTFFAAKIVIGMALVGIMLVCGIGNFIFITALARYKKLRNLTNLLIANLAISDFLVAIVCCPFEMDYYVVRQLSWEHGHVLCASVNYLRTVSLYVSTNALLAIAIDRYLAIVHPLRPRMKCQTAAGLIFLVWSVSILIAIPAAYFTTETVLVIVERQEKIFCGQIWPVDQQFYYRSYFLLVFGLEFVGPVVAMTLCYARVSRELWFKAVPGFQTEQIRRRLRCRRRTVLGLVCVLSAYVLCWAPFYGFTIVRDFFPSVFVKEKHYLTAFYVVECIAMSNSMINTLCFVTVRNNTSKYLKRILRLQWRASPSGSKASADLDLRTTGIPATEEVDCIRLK

human PROKR2(1-53)-hFc [2] = molecular target: T1, human PROKR2(1-53)-hFc; test: SPR (Biacore 4000), 25 C, antibody captured, antigen injected at 25 and 100 nM
Experimental: as §1

Chain of human PROKR1 (Q8TCW9 whole entry): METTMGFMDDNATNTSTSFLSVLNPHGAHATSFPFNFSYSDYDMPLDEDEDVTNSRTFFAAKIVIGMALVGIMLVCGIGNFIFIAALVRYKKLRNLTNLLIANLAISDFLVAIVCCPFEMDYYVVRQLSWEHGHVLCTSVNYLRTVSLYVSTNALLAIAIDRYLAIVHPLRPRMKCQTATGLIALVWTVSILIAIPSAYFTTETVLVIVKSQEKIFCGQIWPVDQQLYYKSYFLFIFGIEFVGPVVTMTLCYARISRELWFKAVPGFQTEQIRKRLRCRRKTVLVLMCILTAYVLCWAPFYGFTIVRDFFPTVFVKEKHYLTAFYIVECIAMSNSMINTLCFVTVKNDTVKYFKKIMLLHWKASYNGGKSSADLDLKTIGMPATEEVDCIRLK

Binder | Block (%), calcium flux, hPROKR1 + PK1 (20 nM hPK1) (human PROKR1) | IC50 (nM), inhibition of calcium flux, hPROKR1 + PK1 (20 nM hPK1) (human PROKR1) | binding result (human PROKR2) | Kd (human PROKR1 (1-62)-hFc) | koff (human PROKR1 (1-62)-hFc) | kon (human PROKR1 (1-62)-hFc) | t½ (human PROKR1 (1-62)-hFc) | Block (%), calcium flux, mPROKR1 + PK1 (1 nM hPK1) (mouse PROKR1) | Kd (human PROKR2(1-53)-hFc [2]) | koff (human PROKR2(1-53)-hFc [2]) | kon (human PROKR2(1-53)-hFc [2]) | t½ (human PROKR2(1-53)-hFc [2]) | binding result (human PROKR2(1-53)-hFc [1])
H4H6706P (antibody, human IgG4, V domains shown) VH: EVQLVESGGGLIKPGGSLRLSCAASGFTFSNAWMSWVRQAPGKGLEWVGRIKRKSDGGTTDYAAPVKGRFTISRDDSKNTMYLQMNSLKTEDTAVYYCTPSGSYYGYWGQGTLVTVSS VL: not shown | 59.1% | 11.2 nM | no binding | 1.09 nM | 0.000213 s⁻¹ | 196000 M⁻¹ s⁻¹ | 54 min | – | – | – | – | – | no binding (tested: 25 and 100 nM antigen injected)
H4H6671P (antibody, human IgG4, V domains shown) VH: EVQLVESGGGLVKPGGSLRLSCAASGFTFSNAWMSWVRQAPGKGLEWVGRIKSRSDGGTTDYAAPVKGRFTISRDDSKNTLYLQMNSLKTEDTALYYCSPPGSHYGYWGQGTLVTVSS VL: not shown | 45% | 14.5 nM | no binding | 1.83 nM | 0.000362 s⁻¹ | 198000 M⁻¹ s⁻¹ | 32 min | 0% | – | – | – | – | no binding (tested: 25 and 100 nM antigen injected)

The next binders have a lower Kd (human PROKR1 (1-62)-hFc) than those just listed; values first:

Block (%), calcium flux, hPROKR1 + PK1 (20 nM hPK1) (human PROKR1) | IC50 (nM), inhibition of calcium flux, hPROKR1 + PK1 (20 nM hPK1) (human PROKR1) | binding result (human PROKR2) | Kd (human PROKR1 (1-62)-hFc) | koff (human PROKR1 (1-62)-hFc) | kon (human PROKR1 (1-62)-hFc) | t½ (human PROKR1 (1-62)-hFc) | Block (%), calcium flux, mPROKR1 + PK1 (1 nM hPK1) (mouse PROKR1) | Kd (human PROKR2(1-53)-hFc [2]) | koff (human PROKR2(1-53)-hFc [2]) | kon (human PROKR2(1-53)-hFc [2]) | t½ (human PROKR2(1-53)-hFc [2]) | Binder | binding result (human PROKR2(1-53)-hFc [1])
51% | 16.4 nM | – | 0.197 nM | 4.55e-05 s⁻¹ | 231000 M⁻¹ s⁻¹ | 254 min | 0% | 4.23 nM | 0.000253 s⁻¹ | 59900 M⁻¹ s⁻¹ | 46 min | H4H6680P (antibody, human IgG4, V domains shown) VH: EVQLVESGGGLVKPGGSLRLSCAVSGFTFSNAWMTWVRQTPGKGLEWVGRIKRKNEGGTIDYAAPVKGRFTISRDDSKNTLYLQMNSLKTEDTAVYYCTPSGSYYGYWGQGTLVTVSS VL: not shown | –
52.4% | 14 nM | no binding | 0.264 nM | 6.23e-05 s⁻¹ | 236000 M⁻¹ s⁻¹ | 186 min | 0% | – | – | – | – | H4H6669P (antibody, human IgG4, V domains shown) VH: EVQLVESGGGLVKPGGSLRLSCAASGFTFSNAWMTWVRQAPGKGLEWVGRIKRKNDGGTIDYAAPVKGRFTISRDDSKNTLYLQMNSLRTEDTAVYYCIPSGSYYGYWGQGTLVTVSS VL: not shown | no binding (tested: 25 and 100 nM antigen injected)
